Results taken from IntAct's records for PubMed 16996049.

B1: Partitioning defective protein 6 (Caenorhabditis elegans), Q9NAN2 (parent)
chain: MSYNGSYHQNHHSTLQVKSKFDSEWRRFSIPMHSASGVSYDGFRSLVEKLHHLESVQFTLCYNSTGGDLLPITNDDNLRKSFESARPLLRLLIQRRGESWEEKYGYGTDSDKRWKGISSLMAQKPPKRSYSISNPEDFRQVSAIIDVDIVPEAHRRVRLCKHGQERPLGFYIRDGTSVRVTERGVVKVSGIFISRLVDGGLAESTGLLGVNDEVLEVNGIEVLGKTLDQVTDMMVANAHNLIITVKPANQRNTLSRGPSQQGTPNASEMSAATAAATGGIQRPMKMNGSSDGSYHPKQHDANDSDSGED

Variants of: B1
Conditions: with cdc42_caeel cdc-42, Q05062
cdc42_caeel cdc-42, Q05062, sequence (Q05062 whole entry): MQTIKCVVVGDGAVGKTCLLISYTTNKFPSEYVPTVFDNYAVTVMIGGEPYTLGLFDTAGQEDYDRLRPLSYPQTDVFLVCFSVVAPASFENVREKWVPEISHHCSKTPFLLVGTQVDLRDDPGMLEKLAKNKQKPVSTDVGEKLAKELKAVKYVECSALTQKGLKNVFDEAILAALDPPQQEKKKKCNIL

effect of a mutation on the interaction | Variant
disrupting interaction | MSYNGSYHQNHHSTLQVKSKFDSEWRRFSIPMHSASGVSYDGFRSLVEKLHHLESVQFTLCYNSTGGDLLPITNDDNLRKSFESARPLLRLLIQRRGESWEEKYGYGTDSDKRWKGISSLMAQKPPKRSYSISNAEAAAQVSAIIDVDIVPEAHRRVRLCKHGQERPLGFYIRDGTSVRVTERGVVKVSGIFISRLVDGGLAESTGLLGVNDEVLEVNGIEVLGKTLDQVTDMMVANAHNLIITVKPANQRNTLSRGPSQQGTPNASEMSAATAAATGGIQRPMKMNGSSDGSYHPKQHDANDSDSGED [P135A;D137A;F138A;R139A]
disrupting interaction | MSYNGSYHQNHHSTLQVKSKFDSEWRRFSIPMHSASGVSYDGFRSLVEKLHHLESVQFTLCYNSTGGDLLPITNDDNLRKSFESARPLLRLLIQRRGESWEEKYGYGTDSDKRWKGISSLMAQKPPKRSYSISNPEDFRQAAAAADVDIVPEAHRRVRLCKHGQERPLGFYIRDGTSVRVTERGVVKVSGIFISRLVDGGLAESTGLLGVNDEVLEVNGIEVLGKTLDQVTDMMVANAHNLIITVKPANQRNTLSRGPSQQGTPNASEMSAATAAATGGIQRPMKMNGSSDGSYHPKQHDANDSDSGED [V141A;S142A;I144A;I145A]
